The record followed here is patent US20090208538A1 (published 2009).

The target in assay [1] is T1, cdr2, human peptide on HLA-A*02:01 (human).
T1 peptide: SLLEEMFLTV
Put plainly: cytokine release.

For assay [2], the target named is T2, cdr2, human peptide on HLA-A*02:01 (human).
T2 peptide: SLLEEMFLT
Put plainly: cytokine release.

Assay [3] concerns the target T3, cdr2 (cerebellar degeneration-related 2 protein), human peptide on HLA-A*02:01 (human).
T3 peptide: LLEEMFLTV
Put plainly: multimer staining.

B1: cdr2 TCR (clone 11/12) (TCR, V domains shown)
Valpha: QQQVRQSPQSLTVWEGGTTVLTCSYEDSTFNYFPWYQQFPGEGPALLISILSVSDKKEDGRFTTFFNKREKKLSLHIIDSQPGDSATYFCAASGASGGSNAKLTFGKGTKLSVKS
Vbeta: DSGVVQSPRHIIKEKGGRSVLTCIPISGHSNVVWYQQTLGKELKFLIQHYEKVERDKGFLPSRFSVQQFDDYHSEMNMSALELEDSAMYFCASSLGGWAEQFFGPGTRLTVL
With B1, the binding result in assay [1] is “recognises”; in assay [2] it was “no recognition”; in assay [3] it was “recognises”.
